Measurements published in patent US5702897.

Biological target: LexA/Bax fusion protein (murine) (UniProt P0A7C2)

| Substance | colony formation of yeast cotransformed with LexA/Bax, galactose medium (neutralization of Bax activity) |
| --- | --- |
| B42/Bcl-2(83-218) hybrid | 16 |
| B42/Bcl-X-L hybrid | 300 |
| B42/Bcl-X-S hybrid | 10 |

The remaining lines, values ahead:

| colony formation of yeast cotransformed with LexA/Bax, galactose medium (neutralization of Bax activity) | Substance |
| --- | --- |
| 19 | B42/Bcl-2(1-81) hybrid |
| 280 | B42/Bcl-2(1-218) hybrid |
| 8 | B42/Lamin |
| 290 | B42/Mcl-1 hybrid |
